Source: US20250171560A1

T1: C-terminal flag-tagged ACPP transmembrane protein expressed on 293T cells (pcDNA-ACPP-flag)
T1 sequence: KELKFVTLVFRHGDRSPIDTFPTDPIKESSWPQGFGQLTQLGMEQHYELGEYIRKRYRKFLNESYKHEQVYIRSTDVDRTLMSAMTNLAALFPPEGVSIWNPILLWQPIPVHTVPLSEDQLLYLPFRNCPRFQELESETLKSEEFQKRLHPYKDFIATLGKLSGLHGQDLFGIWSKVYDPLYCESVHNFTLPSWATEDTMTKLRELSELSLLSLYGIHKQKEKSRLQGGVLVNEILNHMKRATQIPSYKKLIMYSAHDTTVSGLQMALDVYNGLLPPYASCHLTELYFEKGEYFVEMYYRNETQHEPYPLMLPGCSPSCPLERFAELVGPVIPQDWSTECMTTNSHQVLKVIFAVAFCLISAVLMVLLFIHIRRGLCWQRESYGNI

B1: ACPP antibody S4C7 (human full antibody) (antibody, V domains shown)
VH: QMLVQSGAEVKRPGSSVTVSCETSGDTFSRYAISWLRQAPGQGLEWLGWISGNSGRADYAQNFQGRVTMTTDRSTSTAYLNLRSLRSDDTAVYYCARDAPMLFGVRGGGYYFGMDVWGQGTTVTVSS
VL: EIVLTQSASSLSASVGDRVTITCRTSQNIYRYLNWYQQKPGKAPKLLIFGASTLQTGVPSRFSGSGSGTDFTLTITGLQPEDLATYYCQHSFKLPFTFGQGTRLEIK
B2: ACPP antibody S12D4 (human full antibody) (antibody, V domains shown)
VH: QMQLVQSGAEVRRPGSSVKVSCKTSGGTLNNYDINWVRQAPGQGLEWMGWMNPTSGQADFAQKFQGRVSMTRDTSINTAFMELNTLRSEDTAVYYCVRRGGKYWGQGTLVTVSS
VL: QPVLTQDPAVSVALGQTVRITCQGDSLRKYYASWYQQKPGQAPRLVMYDENDRPSGIPDRFSGSSSGNTASLTITGAQADDEADYYCNSRDSSGHHVVFGGGTKVTVL
B3: ACPP antibody S12D9 (human full antibody) (antibody, V domains shown)
VH: EVQLVQSGAEVRKPGSSVKVSCKASGDNFNNYGITWVRQAPGQGLEWMGRLITVLGLDNYAQKFQGRLTITADESTGTAYMELTGLEPEDTAVYYCARDIMSPEAIDAFDVWGQGTLVTVSS
VL: QPVLTQDPVVSVALGQTVRITCQGDSLRSYYATWYQQKPGLAPVRVIFGKNSRPSGIPDRFSGSSSGNTASLTITGAQAEDEADYYCNSWDNSANHPVFGGGTKLTVL
B4: ACPP antibody S10E12 (human full antibody) (antibody, V domains shown)
VH: EVQLVQSGAEVRKPGSSVKVSCKASGDNFNNYGITWVRQAPGQGLEWMGRLITVLGLDNYAQKFQGRLTITADESTGTAYMELTGLEPEDTAVYYCARDIMSPEAIDAFDVWGQGTLVTVSS
VL: DIQMTQSPSSLSASVGDRVTITCRASQDVSNYLNWYQQKPGKAPKLLIYGASNRQTGVPSRFSGSGSGTDFTLTISSLQPEDFATYYCQQEDRFPTTFGQGTKVEIK
B5: ACPP antibody S9F5 (human full antibody) (antibody, V domains shown)
VH: EVQLVESGGGLVQPGGSLRLSCAASGFTFSNYWMSWVRQAPGKGLEWVAGISASGGNKYYADSVKGRFTISRDNSKNTLYLQMNSLRAEDTAVYYCAKGPIQLKRHKYVLDYWGQGTLVTVSS
VL: SYELTQPPSVSVAPGQTARITCGGDALPNNSVRWYQQKPGQAPVLVIYGNSERPSGIPERFSGSNSGNTATLTISGTQAEDEADYYCQVSDKSTKYSVFGGGTKLTVL

These binders were tested against T1, C-terminal flag-tagged ACPP transmembrane protein expressed on 293T cells (pcDNA-ACPP-flag) (assay: flow cytometry on 293T cells transfected with pcDNA-ACPP-flag, surface staining without permeabilisation, goat anti human-FITC secondary antibody).
B1 was tested, and the % of cells in the positive gate V1R was 0.1%.
Binder B2 has a % of cells in the positive gate V1R of 0.06%.
B3 showed a % of cells in the positive gate V1R of 0.01%.
For B4, the % of cells in the positive gate V1R was 0.18%.
B5 gave a % of cells in the positive gate V1R of 0.15%.
